The record followed here is patent US20200230168, “NUCLEIC ACID OLIGOMERS AND USES THEREFOR” (Queensland University of Technology, published 2020).

The target of the first data set is T1, THOC4 (ALYREF) (UniProt Q86V81 Q86V81:2-257). Put plainly: SPR.
Take CCUGUGUGCCCCUCUUCCCU (ssRNA, 2'-OMe all, full PS) [DKLS374580 (SEQ 58)]: the binding signal turned out to be 0.12 normalized Rmax.

In turn, GGAGGGAGUCGGACUUGUCU (ssRNA, 2'-OMe all, full PS) [DKLS444294 (SEQ 65)] showed a binding signal of 1.78 normalized Rmax.

CCAGUGAGCCGAACUUCUCU (ssRNA, 2'-OMe all, full PS) [DKLS459014 (SEQ 62)] yielded a binding signal of 0.26 normalized Rmax.

CUAGUAAGUCGGACUUGCCU (ssRNA, 2'-OMe all, full PS) [DKLS447399 (SEQ 63)] showed a binding signal of 1.22 normalized Rmax.

For CCAGUAAGCCAGACUUGCAU (ssRNA, 2'-OMe all, full PS) [DKLS399970 (SEQ 61)], the binding signal came to 0.3 normalized Rmax.

As for CCAGUGAGCCG (ssRNA, 2'-OMe all, full PS) [In3E3 3' truncation 11 nt], the binding signal was -0.03 normalized Rmax.

The molecule UACCGCGUGCGACCCUCU (ssRNA, 2'-OMe all, full PS) [DKLS784557 (SEQ 10)] yielded a binding signal of 0.49 normalized Rmax.

On to CCACUGAGCCCGACUUCCCU (ssRNA, 2'-OMe all, full PS) [DKLS459520 (SEQ 60)], for which the binding signal worked out at 0.03 normalized Rmax.

CCAGGGAGCCGGACUUGGCG (ssRNA, 2'-OMe all, full PS) [DKLS712428 (SEQ 64)] yielded a binding signal of 0.51 normalized Rmax.

The molecule GCGGUGAACCGGAGUUGGCU (ssRNA, 2'-OMe all, full PS) [DKLS438994 (SEQ 66)] gave a binding signal of 1.11 normalized Rmax.

CCUGUCAGCCGCACUUGCCU (ssRNA, 2'-OMe all, full PS) [DKLS463357 (SEQ 59)] came in with a binding signal of 0.39 normalized Rmax.

In another data set the target is T2, hSSB1 (Homo sapiens, UniProt Q9BQ15 Q9BQ15:1-211). Put plainly: SPR. In general terms: In SPR one partner is held on a chip, and binding of the other changes the refractive index at the surface.
T2 sequence (Q9BQ15 whole entry, one chain of several): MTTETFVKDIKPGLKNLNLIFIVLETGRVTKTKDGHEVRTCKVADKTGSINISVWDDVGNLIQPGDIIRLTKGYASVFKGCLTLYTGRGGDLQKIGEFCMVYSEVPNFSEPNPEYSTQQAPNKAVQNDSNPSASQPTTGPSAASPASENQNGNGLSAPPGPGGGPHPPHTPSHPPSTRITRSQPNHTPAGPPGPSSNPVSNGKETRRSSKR
CCUGUGUGCCCCUCUUCCCU (ssRNA, 2'-OMe all, full PS) [DKLS374580 (SEQ 58)] showed a binding signal of 0.68 normalized Rmax.

Molecule GGAGGGAGUCGGACUUGUCU (ssRNA, 2'-OMe all, full PS) [DKLS444294 (SEQ 65)] came in with a binding signal of 1.58 normalized Rmax.

Molecule CCAGUGAGCCGAACUUCUCU (ssRNA, 2'-OMe all, full PS) [DKLS459014 (SEQ 62)] displayed a binding signal of 0.55 normalized Rmax.

For CUAGUAAGUCGGACUUGCCU (ssRNA, 2'-OMe all, full PS) [DKLS447399 (SEQ 63)], the binding signal amounted to 1.22 normalized Rmax.

CCAGUAAGCCAGACUUGCAU (ssRNA, 2'-OMe all, full PS) [DKLS399970 (SEQ 61)] came in with a binding signal of 0.64 normalized Rmax.

As to CCAGUGAGCCG (ssRNA, 2'-OMe all, full PS) [In3E3 3' truncation 11 nt], the binding signal was 0.15 normalized Rmax.

For the molecule UACCGCGUGCGACCCUCU (ssRNA, 2'-OMe all, full PS) [DKLS784557 (SEQ 10)], the binding signal came out at 0.69 normalized Rmax.

In turn, CCACUGAGCCCGACUUCCCU (ssRNA, 2'-OMe all, full PS) [DKLS459520 (SEQ 60)] came in with a binding signal of 0.63 normalized Rmax.

CCAGGGAGCCGGACUUGGCG (ssRNA, 2'-OMe all, full PS) [DKLS712428 (SEQ 64)] registered a binding signal of 0.7 normalized Rmax.

GCGGUGAACCGGAGUUGGCU (ssRNA, 2'-OMe all, full PS) [DKLS438994 (SEQ 66)]: the binding signal amounted to 1.03 normalized Rmax.

Take CCUGUCAGCCGCACUUGCCU (ssRNA, 2'-OMe all, full PS) [DKLS463357 (SEQ 59)]: the binding signal was determined as 0.95 normalized Rmax.

The next data set concerns the target T1, THOC4 (ALYREF). The data set is described as follows: SPR; LSA_In3E3 = 1.
Turning to CGUGUCAUCCGCUCUCGACU (ssRNA, 2'-OMe all, PS all) [LSA_In3E3_CT4], the binding signal is 0.21 normalized Rmax.

Molecule GUGCAUGGAAUCACGGAGUGGUGCAUGGAA (ssRNA, 2'-OMe all, PS all) [Open_A 30-mer (DKLS722361)] returned a binding signal of 1.53 normalized Rmax.

As to CCAGUGAGCCGG (ssRNA, 2'-OMe all, PS all) [In3E3 3' truncation 12 nt], the binding signal was determined as 0 normalized Rmax.

Molecule CCAGUGAGCCGGACUU (ssRNA, 2'-OMe all, PS all) [In3E3 3' truncation 16 nt] yielded a binding signal of 0.38 normalized Rmax.

UGAGCCGGACUU (ssRNA, 2'-OMe all, PS all) [In3E3 both-end truncation 12 nt] gave a binding signal of 0.08 normalized Rmax.

As for AGCCGGAC (ssRNA, 2'-OMe all, PS all [2'-OMe at 1-8 (all); PS at all linkages]) [In3E3 both-end truncation 8 nt], the binding signal was -0.07 normalized Rmax.

In the case of CAGUGAGCCGGACUUGCCU (ssRNA, 2'-OMe all, PS all) [In3E3 5' truncation 19 nt], the binding signal worked out at 0.87 normalized Rmax.

Molecule AGUGAGCCGGACUUGCCU (ssRNA, 2'-OMe all, PS all) [In3E3 5' truncation 18 nt] registered a binding signal of 0.84 normalized Rmax.

Turning to GUGAGCCGGACUUGCCU (ssRNA, 2'-OMe all, PS all) [In3E3 5' truncation 17 nt], the binding signal worked out at 0.23 normalized Rmax.

In turn, AGUGAGCCGGACUUGC (ssRNA, 2'-OMe all, PS all) [In3E3 both-end truncation 16 nt] had a binding signal of 0.68 normalized Rmax.

Molecule CCAGUGAGCUGGACUUGCCU (ssRNA, 2'-OMe all, PS all) [In3LSA_CU] had a binding signal of 0.54 normalized Rmax.

On to GGACUUGCCU (ssRNA, 2'-OMe all, PS all) [In3E3 5' truncation 10 nt], for which the binding signal is -0.01 normalized Rmax.

CCGGACUUGCCU (ssRNA, 2'-OMe all, PS all) [In3E3 5' truncation 12 nt] registered a binding signal of 0.07 normalized Rmax.

Consider CCAGUGAGCCGGACUUG (ssRNA, 2'-OMe all, PS all) [In3E3 3' truncation 17 nt], for which the binding signal worked out at 0.69 normalized Rmax.

The next data set has as its target T2, hSSB1. Put plainly: SPR; LSA_In3E3 = 1.
Turning to CGUGUCAUCCGCUCUCGACU (ssRNA, 2'-OMe all, PS all) [LSA_In3E3_CT4], the binding signal was determined as 0.8 normalized Rmax.

GUGCAUGGAAUCACGGAGUGGUGCAUGGAA (ssRNA, 2'-OMe all, PS all) [Open_A 30-mer (DKLS722361)] registered a binding signal of 4.08 normalized Rmax.

With CCAGUGAGCCGG (ssRNA, 2'-OMe all, PS all) [In3E3 3' truncation 12 nt], the binding signal is 0.24 normalized Rmax.

CCAGUGAGCCGGACUU (ssRNA, 2'-OMe all, PS all) [In3E3 3' truncation 16 nt] came in with a binding signal of 0.4 normalized Rmax.

In turn, UGAGCCGGACUU (ssRNA, 2'-OMe all, PS all) [In3E3 both-end truncation 12 nt] registered a binding signal of 0.2 normalized Rmax.

For the molecule AGCCGGAC (ssRNA, 2'-OMe all, PS all [2'-OMe at 1-8 (all); PS at all linkages]) [In3E3 both-end truncation 8 nt], the binding signal came out at 0.07 normalized Rmax.

The molecule CAGUGAGCCGGACUUGCCU (ssRNA, 2'-OMe all, PS all) [In3E3 5' truncation 19 nt] registered a binding signal of 0.92 normalized Rmax.

On to AGUGAGCCGGACUUGCCU (ssRNA, 2'-OMe all, PS all) [In3E3 5' truncation 18 nt], for which the binding signal worked out at 0.84 normalized Rmax.

In turn, GUGAGCCGGACUUGCCU (ssRNA, 2'-OMe all, PS all) [In3E3 5' truncation 17 nt] registered a binding signal of 0.83 normalized Rmax.

Consider AGUGAGCCGGACUUGC (ssRNA, 2'-OMe all, PS all) [In3E3 both-end truncation 16 nt], for which the binding signal stood at 0.71 normalized Rmax.

Molecule CCAGUGAGCUGGACUUGCCU (ssRNA, 2'-OMe all, PS all) [In3LSA_CU] registered a binding signal of 0.97 normalized Rmax.

In turn, GGACUUGCCU (ssRNA, 2'-OMe all, PS all) [In3E3 5' truncation 10 nt] displayed a binding signal of 0.07 normalized Rmax.

CCGGACUUGCCU (ssRNA, 2'-OMe all, PS all) [In3E3 5' truncation 12 nt] registered a binding signal of 0.13 normalized Rmax.

Consider CCAGUGAGCCGGACUUG (ssRNA, 2'-OMe all, PS all) [In3E3 3' truncation 17 nt], for which the binding signal was 0.59 normalized Rmax.
